Test results taken from US20230035659A1, “Compositions and Methods for TTR Gene Editing and Treating ATTR Amyloidosis Comprising a Corticosteroid or Use Thereof” (Intellia Therapeutics, Inc., priority 2019, published 2023).
Strand notation (5' to 3'): a small letter for the sugar, then the base; units joined by * are phosphorothioate-linked, units joined directly phosphodiester-linked; [ ] holds rarer units or linkages, { } end groups; capitals alone tell only the bases. m = 2'-O-methyl; r = 2'-OH (RNA)

How the values were obtained:
TTR = TTR editing dose response (EC50, maximum editing) in primary human hepatocytes treated with LNP formulated U-depleted Spy Cas9 mRNA and sgRNAs; assay type: cell-based; conditions: LNP formulated U-depleted Spy Cas9 mRNA and human specific sgRNAs, dose response
How it was run: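 Primary human hepatocytes, plated 24 h earlier, got LNPs carrying Cas9 mRNA and sgRNA, preincubated 5 min in medium with 6% cyno serum. Dosing was an 8-point 3-fold series from 300 ng mRNA. At 72 h, NGS read indel/substitution frequency at the target, giving EC50 and maximum percent editing.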

TTR mRNA = TTR mRNA knockdown (quantitative PCR) in primary human hepatocytes treated with LNPs; assay type: cell-based; conditions: PHH; LNP dose 300 ng mRNA cargo; gRNA:mRNA 1:2; 96 h; biological triplicates; vs untreated control
Description: In one experiment, PHH were cultured and treated with LNPs comprising Cas9 mRNA (SEQ ID NO:1) and a gRNA of interest (See FIG. 29, Table 36), as described in Example 4. The LNPs were prepared using the cross-flow procedure described above and purified and concentrated using PD-10 columns and Amicon centrifugal filter units, respectively. The LNPs were formulated with an N:P ratio of 6.0 and contained Lipid A, Cholesterol, DSPC, and PEG2k-DMG in a 50:38:9:2 molar ratio, respectively. The LNPs comprised a gRNA:mRNA ratio of 1:2, and the cells were treated at a dose of 300 ng (with respect to the amount of mRNA cargo delivered).
(§1) Ninety-six (96) hours following LNP treatment (with biological triplicates for each condition), mRNA was purified from PHH cells using the Dynabeads mRNA DIRECT Kit (ThermoFisher Scientific) according to the manufacturer's protocol. Reverse Transcription (RT) was performed with Maxima reverse transcriptase (ThermoFisher Scientific) and a poly-dT primer. The resulting cDNA was purified with Ampure XP Beads (Agencourt). For Quantitative PCR, 2% of the purified cDNA was amplified with Taqman Fast Advanced Mastermix and 3 Taqman probe sets, TTR (Assay ID: Hs00174914_m1), GAPDH (Assay ID: Hs02786624_g1), and PPIB (Assay ID: Hs00168719_m1). The assays were run on the QuantStudio 7 Flex Real Time PCR System according to the manufacturer's instructions (Life Technologies). Relative expression of TTR mRNA was calculated by normalizing to the endogenous controls (GAPDH and PPIB) individually, and then averaged.
The groups in FIG. 29 and Table 36 are identified by the gRNA ID used in each LNP preparation.
In a separate experiment, TTR mRNA knockdown was evaluated following treatment with LNPs comprising G000480, G000486, and G000502. The LNPs were formulated and PHH were cultured and treated with the LNPs, each as described in the experiment above in this Example with the exception that the cells were treated at a dose of 100 ng (with respect to the amount of mRNA cargo delivered).
as §1, with “(single treatment” for “(with biological triplicates”, “the High Capacity cDNA Reverse Transcription Kit” for “Maxima reverse transcriptase”, “according to the manufacturer's instructions.” for “and a poly-dT primer. The resulting cDNA was purified with Ampure XP Beads (Agencourt).”, “the” for “the purified”
The groups in FIG. 30 and Table 37 are identified by the gRNA ID used in each LNP preparation.

Molecule	Max Editing (TTR)	Avg % Knockdown (TTR mRNA) (TTR mRNA)
G000481: TTR sgRNA modified sequence, Human, SEQ ID NO: 88; guide sequence of CR003345 (nucleic acid, sugars from the 5' end m3 r25 m12 r28 m32, backbone not given here; further chemistry not fully specified) guide: UCUAGAACUUUGACCAUCAGGUUUUAGAGCUAGAAAUAGCAAGUUAAAAUAAGGCUAGUCCGUUAUCAACUUGAAAAAGUGGCACCGAGUCGGUGCUUUU	87.05%	91.39%
G000500: TTR sgRNA modified sequence, Human, SEQ ID NO: 107; guide sequence of CR003337 (nucleic acid) guide: mC*mC*mA*rGrUrCrCrArGrCrArArGrGrCrArGrArGrGrGrUrUrUrUrArGrAmGmCmUmAmGmAmAmAmUmAmGmCrArArGrUrUrArArArArUrArArGrGrCrUrArGrUrCrCrGrUrUrArUrCrAmAmCmUmUmGmAmAmAmAmAmGmUmGmGmCmAmCmCmGmAmGmUmCmGmGmUmGmCmU*mU*mU*mU	88.70%	92.90%
G000489: TTR sgRNA modified sequence, Human, SEQ ID NO: 96; guide sequence of CR003344 (nucleic acid) guide: mU*mU*mU*rGrArCrCrArUrCrArGrArGrGrArCrArCrUrGrUrUrUrUrArGrAmGmCmUmAmGmAmAmAmUmAmGmCrArArGrUrUrArArArArUrArArGrGrCrUrArGrUrCrCrGrUrUrArUrCrAmAmCmUmUmGmAmAmAmAmAmGmUmGmGmCmAmCmCmGmAmGmUmCmGmGmUmGmCmU*mU*mU*mU	86.33%	91.85%
G000568: TTR sgRNA modified sequence, Human, SEQ ID NO: 110; guide sequence of CR003391 (nucleic acid) guide: mG*mG*mC*rUrGrUrCrGrUrCrArCrCrArArUrCrCrCrArGrUrUrUrUrArGrAmGmCmUmAmGmAmAmAmUmAmGmCrArArGrUrUrArArArArUrArArGrGrCrUrArGrUrCrCrGrUrUrArUrCrAmAmCmUmUmGmAmAmAmAmAmGmUmGmGmCmAmCmCmGmAmGmUmCmGmGmUmGmCmU*mU*mU*mU	95.72%	53.44%
G000493: TTR sgRNA modified sequence, Human, SEQ ID NO: 100; guide sequence of CR003368 (nucleic acid) guide: mA*mA*mG*rUrGrCrCrUrUrCrCrArGrUrArArGrArUrUrGrUrUrUrUrArGrAmGmCmUmAmGmAmAmAmUmAmGmCrArArGrUrUrArArArArUrArArGrGrCrUrArGrUrCrCrGrUrUrArUrCrAmAmCmUmUmGmAmAmAmAmAmGmUmGmGmCmAmCmCmGmAmGmUmCmGmGmUmGmCmU*mU*mU*mU	63.95%	87.53%
G000490: TTR sgRNA modified sequence, Human, SEQ ID NO: 97; guide sequence of CR003366 (nucleic acid) guide: mA*mA*mA*rUrArGrArCrArCrCrArArArUrCrUrUrArCrGrUrUrUrUrArGrAmGmCmUmAmGmAmAmAmUmAmGmCrArArGrUrUrArArArArUrArArGrGrCrUrArGrUrCrCrGrUrUrArUrCrAmAmCmUmUmGmAmAmAmAmAmGmUmGmGmCmAmCmCmGmAmGmUmCmGmGmUmGmCmU*mU*mU*mU	94.16%	78.34%
G000572: TTR sgRNA modified sequence, Human, SEQ ID NO: 113; guide sequence of CR003385 (nucleic acid) guide: mC*mC*mC*rCrUrArCrUrCrCrUrArUrUrCrCrArCrCrArGrUrUrUrUrArGrAmGmCmUmAmGmAmAmAmUmAmGmCrArArGrUrUrArArArArUrArArGrGrCrUrArGrUrCrCrGrUrUrArUrCrAmAmCmUmUmGmAmAmAmAmAmGmUmGmGmCmAmCmCmGmAmGmUmCmGmGmUmGmCmU*mU*mU*mU	97.94%	55.92%
G000488: TTR sgRNA modified sequence, Human, SEQ ID NO: 95; guide sequence of CR003346 (nucleic acid) guide: mA*mA*mA*rGrUrUrCrUrArGrArUrGrCrUrGrUrCrCrGrGrUrUrUrUrArGrAmGmCmUmAmGmAmAmAmUmAmGmCrArArGrUrUrArArArArUrArArGrGrCrUrArGrUrCrCrGrUrUrArUrCrAmAmCmUmUmGmAmAmAmAmAmGmUmGmGmCmAmCmCmGmAmGmUmCmGmGmUmGmCmU*mU*mU*mU	95.83%	92.77%
